System: SaraC (Stereum hirsutum FP-91666)
Experiment: SPR
Details: S-adenosylmethionine (16 mM, protein pre-incubation), SPR Biacore T200, CM5 anti-His capture, 1x PBS with 5% DMSO pH 7.5 (protein/SAM mix), oligos in 1x PBS, 25 C, 5 uL/min, analyte 0.25-4 uM (Fig. 1 legend …)

ATCCAGAGCGAGCCTATTACG [Oligo1309] showed a Kd (called weak, 6mA at positions 7 and 11) of 1670 nM.
For CGATCGGATTTGACGGTT [Oligo5564], the Kd (two methyl groups, printed mG at positions 7 and 12, text calls these oligos 5mC or 6mA, so methylated base is ambiguous) was 821 nM.
In the case of GATTCCTTC [Oligo7291], the Kd (5mC at position 5) is reported as 662 nM.
